{"source": "paper PMC7581431", "about": "“Feedback control of Wnt signaling based on ultrastable histidine cluster co-aggregation between Naked/NKD and Axin” (eLife, 2020)", "binders": {"B1": {"name": "RFP-NKD1-EF (domain or fragment, human, UniProt Q969G9 110-190, looked up)", "chain": "EPCPGSKKQLKFEELQCDVSMEEDSRQEWTFTLYDFDNNGKVTREDITSLLHTIYEVVDSSVNHSPTSSKMLRVKLTVAPD", "notes": "EF-hand of human NKD1, residues 110-190; Dimer by SEC-MALS (expected RFP-NKD1-EF dimer, 71.8 kDa); also called RFP-NKD-EF; NKD1 EF-hand; source: E. coli BL21DE3 pRare2, purified (NiNTA, SEC)"}}, "key": {"[1]": {"target": "the molecule itself", "assay": "SEC-MALS; purified proteins and preformed complexes, Superdex-200 10/300, 2 mg/ml, 15 mM TrisHCl, 150 mM NaCl, pH 7.4"}, "Lip-DVL2-PDZ": {"target": "T1, Lip-DVL2-PDZ (human, UniProt O14641 285-373)", "T1 construct": "PDZ domain of human DVL2, residues 285-373; also called DVL2 PDZ domain; wt DVL2 PDZ domain; source: E. coli BL21DE3 pRare2, purified (NiNTA, SEC)", "T1 sequence (looked up)": "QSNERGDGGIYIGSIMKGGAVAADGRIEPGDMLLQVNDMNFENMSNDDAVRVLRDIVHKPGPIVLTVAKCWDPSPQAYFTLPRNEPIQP", "assay": "ITC; MicroCal iTC200, 15 mM Tris-HCl, 150 mM NaCl, pH 7.4; Lip-DVL2-PDZ or Lip-DVL2-PDZ-V334E (696 μM) injected into 17.2 μM RFP-NKD-EF", "settings": "both partners purified"}}, "data": [{"binder": "B1", "values": [{"measurement": "stoichiometry N", "setting": "[1]", "result": 2}, {"measurement": "Kd", "setting": "Lip-DVL2-PDZ", "result": "3.2 ± 0.2", "unit": "µM"}]}]}
